Residue numbers refer to the chain shown, from its start.
T1: cynomolgus galectin-10-His, WGS isoform (cynomolgus)
T1 construct: also called cynoGal10-WGS; not shown: His tag
T1 chain: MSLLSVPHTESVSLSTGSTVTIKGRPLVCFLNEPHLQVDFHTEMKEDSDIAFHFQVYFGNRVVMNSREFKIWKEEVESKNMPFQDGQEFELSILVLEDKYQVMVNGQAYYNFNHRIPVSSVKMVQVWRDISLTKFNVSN

T2: cynomolgus galectin-10-His, YRT isoform (cynomolgus)
T2 construct: also called cynoGal10-YRT; not shown: His tag
T2 chain: T1 chain with K23E, G24A, L31F, F69Y, K70R, I71T, S92R

T3: human galectin-10-His (human)
T3 construct: The last M of the tag may be Met1 of galectin-10; also called humanGal10-His; hGal10
T3 chain: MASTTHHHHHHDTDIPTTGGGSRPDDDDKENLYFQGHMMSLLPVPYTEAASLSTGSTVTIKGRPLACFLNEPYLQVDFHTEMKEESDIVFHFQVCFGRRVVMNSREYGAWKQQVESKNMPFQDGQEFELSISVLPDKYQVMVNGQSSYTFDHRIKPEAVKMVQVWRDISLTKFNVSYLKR

T4: recombinant human galectin-10, TEV-cleaved (human, UniProt Q05315 1-142)
T4 sequence: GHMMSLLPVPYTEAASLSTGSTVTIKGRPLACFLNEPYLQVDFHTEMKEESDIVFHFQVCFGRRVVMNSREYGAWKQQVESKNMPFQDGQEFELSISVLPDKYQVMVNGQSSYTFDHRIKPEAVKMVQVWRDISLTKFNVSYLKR

T5: human galectin-10-His (recombinant human galectin-10 with TEV-cleavable N-terminal His-tag) (human)
T5 construct: SEC-MALLS: dimer in solution; also called Gal10-His; humanGal10-His
T5 chain: T3 chain

T6: human galectin-10 as coated in ELISA (soluble galectin-10; tag not given) (human, UniProt Q05315 1-142, limits assumed)
T6 construct: also called coated galectin-10; Gal10
T6 sequence: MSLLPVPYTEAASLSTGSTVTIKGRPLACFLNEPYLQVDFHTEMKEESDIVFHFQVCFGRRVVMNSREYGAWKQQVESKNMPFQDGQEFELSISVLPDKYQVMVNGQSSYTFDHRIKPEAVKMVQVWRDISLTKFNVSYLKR

B1: 8H11 mouse IgG1 (antibody, V domains shown)
VH: ELQLVESGGGLVQPGGSLRLSCAASGFTFSTNYMNWVRQAPGKGLEWVSGITSGGGRTYYADSVKGRFTISRDNAKNTLYLQMNSLKPEDTALYYCARTDHAWLDAWGQGTLVTVSS
VL: QAGLTQPPSVSGTLGKTVTISCAGTSSDVGYGNYVSWYQQLPGTAPKLLIYAVSTRASGIPDRFSGSKSGNTASLTISGLLSEDEADYYCASYRSSNNYVFGGGTKLTVL
notes: VH and VL cloned in frame with mouse IgG1 constant domains; also called 8H11 mIgG1
B2: 10B02 mouse IgG1 (antibody, V domains shown)
VH: QVQLVESGGGLVQPGGSLRVSCAASGFTFSYHYMNWVRQAPGKGLEWVSGISAGGGRTYYADSVKGRFTISRDNAKNTLYLQMNSLNAEDTALYYCARVHGITNDYWGQGTQVTVSS
VL: QSALTQPPSVSGSPGKTVTISCAGTSSDVGYGNYVSWYQQLPGMAPKLLIYEVNKRASGITDRFSGSKSGNTAFLTISGLQSEDEADYYCASYRNSNNWVFGGGTHLTVL
notes: VH and VL cloned in frame with mouse IgG1 constant domains; also called 10B02 mIgG1
B3: 11F02 mouse IgG1 (antibody, V domains shown)
VH: B1 VH with L4V, G54H, G56A, A75S, W103S
VL: QTVVTQEPSLSVSPGGTVTLTCGLSSGSVTSSNYPGWYQQKPGQAPRTLIYNTNSRYSGVPNRFSGSISGNKAALTITGAQPEDEADYYCALYMGSSSYNTVFGGGTHLTVL
notes: VH and VL cloned in frame with mouse IgG1 constant domains; also called 11F02 mIgG1
B4: scFv 1C09 (periplasmic extract, Myc-tagged) (scFv, not shown: small tags and cut ends)
scFv: QVQLVESGPGLVKPSQTLSLTCTVSGGSITTNSYYWSWIRQPPGKGLEWMGAIAYSGSTYYSPSLKSRTSISRDTSKNQFTLHLSSVTPEDTAVYYCARRPNWYRALDAWGQGTLVTVSSGGGGSGGGGSGGGGSNFMLTQPSAVSVSLGQTARITCQGANLGRYYGIWYQQKPGQAPVQVIYGDSNRPSGIPERFSGSSSGGTATLTISGAQAEDEADYYCQSYESSTSPVFGGGTHLTVL
notes: also called 1C9
B5: scFv 1D11 (periplasmic extract, Myc-tagged) (scFv, not shown: small tags and cut ends)
scFv: QVQLVESGGGLVQPGGSLRLSCAASGFTFDDYAMSWVRQAPGKGLEWVSGISWNGGSTYYAESMKGRFTISRDNAKNTLYLQMNSLKSEDTAVYYCAKDRNLGYRLGYPYDYWGQGTQVTVSSGGGGSGGGGSGGGGSQSVLTQPPSVSGSPGETVTISCAGTSSDVGYGNYVSWYQQLPGMAPRLLIYEVNKRASGITDRFSGSKSGNTASLTISGLQSEDEGDYYCASYRSSNNAVFGGGTHLTVL
notes: also called 1D011
B6: scFv 2C07 (periplasmic extract, Myc-tagged) (scFv, not shown: small tags and cut ends)
scFv: ELQLVESGGGLVQPGGSLRLSCAASGFTFSSYAMSWVRQAPGKGLEWVSNINSGGGSTGYADSVKGRFTISRDNAKNTLYLQMNSLKPEDMAVYYCAKYLRTYYPNAAFGMDYWGKGTLVTVSSGGGGSGGGGSGGGGSQAVLTQPSAVSVSLGQTARITCQGGNFGRYYASWYQQKPGQAPVLVIYRDSERPSGIPERFSGSSSGDTATLTISGAQAEDEADYYCQSGRSSDNAVFGGGTHLTGL
B7: scFv 2F09 (periplasmic extract, Myc-tagged) (scFv, not shown: small tags and cut ends)
scFv: QVQVQESGPGLVKPSQTLSLTCTVSGGSITTNYFYWSWIRQSPGKGLEWIGAIAYSGRTYYSPSLKSRTSISRDTSNNQFTLQLSSVTPEDTAVYYCARGPKGLASYYDYWGQGTQVTVSSGGGGSGGGGSGGGGSSSALTQPSAVSVSLGQTARITCQGGNFGYYYVSWYQQKPGQAPVLVIYRDSGRPSGIPERFSGSSSGDTATLTISGAQAEDEADYYCQSGSSSDNTVFGGGTHLTVL
B8: scFv 4E08 (periplasmic extract, Myc-tagged) (scFv, not shown: small tags and cut ends)
scFv: QVQRQESGPGLVKPSQTLSLTCTVSGGSITTSYYAWSWIRQPPGKGLEWMGVIASDGSTYYSPSLKSRTSISRDTSKNQFSLQLSSVTPEDTAVYYCALYIRGSSWSGWSAYDYWGQGTQVTVSSGGGGSGGGGSGGGGSQPVLNQPSAVSVSLGQTARITCQGGNFGYYYGSWYQQKPGQAPVLVIYKDSERPSGIPERFSGSSSGGTATLTISRAQAEDEADYYCQSADSSDNPVFGGGTHLTVL
notes: also called 4E8
B9: scFv 6A08 (periplasmic extract, Myc-tagged) (scFv, not shown: small tags and cut ends)
scFv: QVQLVESGGGLVQPGGSLRLSCAASGFTFSSYAMSWVRQAPGKGPEWVSAINRGGGSTYYADSVKGRFTISRDNAKNTLYLQMNSLKPEDAAVYYCATPGDRLWYYRYDYWGQGAQVTVSSGGGGSGGGGSGGGGSQTVVTQEPSLSVSPGGTVTLTCGLSSGSVTSSNYPGWYQQTPGQAPRLLIYNTNSRYSGVPNRFSGSISGNKAALIISGAQPEDEADYHCALNRVRGTYRVFGGGTHLTVL

Key:
[1] = target: T1, cynomolgus galectin-10-His, WGS isoform; assay: ELISA, coated antigen 0.5 ug/mL
Procedure: (§1) In a similar setup to that used during the characterization of the scFv-human Fc molecules, the relative binding properties of the 7 mouse IgG1 antibodies were analyzed by ELISA. A Maxisorp plate was coated overnight with 0.5 μg/mL of human or cynomolgus WGS or YRT isoform of galectin-10-His. Then a serial dilution of each clone (from 100 nM, dilution 1/4, 12 points of dilutions) was incubated on coated galectin-10. After several washing steps, detection of the bound mouse IgG1 was carried out with an anti-mouse Fc-HRP antibody (DAMPO, Jackson ImmunoResearch, Catalog 715-035-150). Absorbance was measured at 450 nm (reference at 620 nm) with Tecan instrument. The raw data (OD values) were plotted on GraphPad Prism 7.01. The EC50 values for each antibody, calculated with a non-linear regression (log(agonist) vs. response Variable slope (four parameters)), are shown in the table below. Antibody 1D11 from the previous panel was included for comparison.

[2] = target: T2, cynomolgus galectin-10-His, YRT isoform; assay: ELISA, coated antigen 0.5 ug/mL
Procedure: as §1

human galectin-10-His [3] = target: T3, human galectin-10-His; assay: ELISA, coated antigen 0.5 ug/mL
Procedure: as §1

[4] = target: T4, recombinant human galectin-10, …; assay: cell-based or functional assay
[5] = target: T1, cynomolgus galectin-10-His, WGS isoform; assay: SPR Biacore T3000, mouse IgG1 captured
Procedure: (§2) The binding capacity of the mouse IgG1 antibody panel to galectin-10 was analysed on Biacore T3000. For this purpose, a capture approach was used, where a fixed concentration (1.5 μg/mL) of the mouse IgG1 clone was captured by polyclonal anti-mouse Fc antibodies immobilized on CM5 Chip to reach a binding signal around 150 RU. Then a serial dilution of human and cynomolgus WGS isoform of galectin-10-His (serial dilution, 1 over 2 from 5 μg/mL) diluted in HBS-EP pH7.4 was injected. Raw data were analysed via BIA evaluation software with a blank subtraction. The kd/KD and Rmax of each mAbs to galectin-10-His was determined using the Fit Kinetics simultaneous ka/kd/Binding with mass transfer/Local Rmax on BIA evaluation software.

human galectin-10-His [6] = target: T3, human galectin-10-His; assay: SPR Biacore T3000, mouse IgG1 captured
Procedure: as §2

[7] = target: T4, recombinant human galectin-10, …; assay: cell-based or functional assay; remark: listed apart in the source
[8] = target: T5, human galectin-10-His (recombinant …); assay: BLI Octet RED96, galectin-10-His on anti-Penta-His tips, scFv periplasmic extract 1/10
Procedure: Briefly, galectin-10-His tagged diluted in Kinetic Buffer was captured on Anti-Penta His 1K sensor tips until an immobilization level of 1 nm was reached. Then, diluted periplasmic extracts (1/10) were applied and association/dissociation to immobilized galectin-10-His was measured using the ForteBio Data analysis 9.0 software (subtraction of the reference Tips, 1.1 binding model). During the screening, only the dissociation (off-rate) of the scFv can be determined since the effective concentration of the scFv is unknown and can vary a lot from clone to clone. […] Therefore, taking into consideration the ELISA and BLI data, a new panel of lead scFvs was selected.

[9] = target: T6, human galectin-10 as coated in ELISA …; assay: ELISA, scFv periplasmic extract on coated soluble galectin-10, anti-Myc-HRP
Procedure: In order to test the binding capacity of the scFvs to galectin-10, an ELISA binding assay was established. Briefly, a Maxisorp plate was coated with soluble galectin-10 (1 μg/mL), then blocked with casein, before being incubated with the periplasmic extract (dilution 1/5 in PBS) containing the scFv-Myc. Detection of the binder was carried out with an anti-Myc-HRP antibody. Absorbance was measured at 450 nm (reference at 620 nm) with Tecan instrument. A significant number of galectin-10 scFv binders were isolated after the second round of selection (45-87% of binders).

| Binder | EC50 [1] | OD values [1] | OD values [2] | EC50 (human galectin-10-His [3]) | OD values (human galectin-10-His [3]) | 50% dissolution (min) of CLCs, antibody 50 uM [4] | 90% dissolution (min) of CLCs, antibody 50 uM [4] | Kd [5] | koff [5] | kon [5] | Kd (human galectin-10-His [6]) | koff (human galectin-10-His [6]) | kon (human galectin-10-His [6]) | koff [8] | ELISA binding (OD values) [9] | further results |
| --- | --- | --- | --- | --- | --- | --- | --- | --- | --- | --- | --- | --- | --- | --- | --- | --- |
| B1 | 0.03 nM | 3.61 OD | 2.97 OD | 1.46 nM | 1.5 OD | 22.4 min | 43.5 min | 4.4 nM | 0.000754 s⁻¹ | 170000 M⁻¹ s⁻¹ | 0.9 nM | 0.00197 s⁻¹ | 2.31e+06 M⁻¹ s⁻¹ |  |  | EC50 [2]: 0.3 nM; 50% crystal dissolution (min), 50 uM [7]: 68.3 min; 90% crystal dissolution (min), 50 uM [7]: > 120 min |
| B2 | 0.04 nM | 3.7 OD | 3.36 OD | 2.28 nM | 1.4 OD | 25.1 min | 47.4 min | 0.9 nM | 0.00042 s⁻¹ | 494000 M⁻¹ s⁻¹ | 1.5 nM | 0.00205 s⁻¹ | 1.42e+06 M⁻¹ s⁻¹ |  |  | EC50 [2]: 0.14 nM; 50% crystal dissolution (min), 50 uM [7]: 73.7 min; 90% crystal dissolution (min), 50 uM [7]: > 120 min |
| B3 | 0.6 nM | 3.29 OD | 1.7 OD | 3.08 nM | 0.9 OD | 25.5 min | 57.5 min | 5 nM | 0.00198 s⁻¹ | 394000 M⁻¹ s⁻¹ | 2.2 nM | 0.00489 s⁻¹ | 2.27e+06 M⁻¹ s⁻¹ |  |  |  |
| B4 |  |  |  |  |  |  |  |  |  |  |  |  |  | 0.0014 s⁻¹ | 3.5 OD |  |
| B5 |  |  |  |  |  |  |  |  |  |  |  |  |  | 0.0052 s⁻¹ | 3.3 OD |  |
| B6 |  |  |  |  |  |  |  |  |  |  |  |  |  | 0.0067 s⁻¹ | 3.6 OD | PERI-ELISA binding (OD values) [9]: 3.63 OD |
| B7 |  |  |  |  |  |  |  |  |  |  |  |  |  | 0.0099 s⁻¹ | 3.6 OD |  |
| B8 |  |  |  |  |  |  |  |  |  |  |  |  |  | 0.0094 s⁻¹ | 3.6 OD |  |
| B9 |  |  |  |  |  |  |  |  |  |  |  |  |  | 0.0082 s⁻¹ | 3.5 OD |  |
